# Test results as given in FireProtDB (doi:10.1016/0167-4838(93)90045-s).
# Conditions: Carica papaya, Thermal, DSC, glycine 0.05M, reversible: No
# Sequence of Chymopapain wild type, P14080 (P14080 whole entry): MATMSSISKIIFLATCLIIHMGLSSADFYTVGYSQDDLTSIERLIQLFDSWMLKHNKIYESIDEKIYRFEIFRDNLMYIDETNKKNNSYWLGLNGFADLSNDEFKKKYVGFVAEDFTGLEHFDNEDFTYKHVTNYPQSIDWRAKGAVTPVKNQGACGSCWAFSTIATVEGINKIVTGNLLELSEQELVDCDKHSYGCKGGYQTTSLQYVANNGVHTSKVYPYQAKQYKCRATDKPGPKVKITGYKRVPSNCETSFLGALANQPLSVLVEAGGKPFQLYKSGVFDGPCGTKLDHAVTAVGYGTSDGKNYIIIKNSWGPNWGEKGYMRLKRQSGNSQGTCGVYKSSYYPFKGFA
substance,measurement,setting,value
"Chymopapain wild type, P14080",Tm,pH 1.2,43 °C
same,unfolding enthalpy (calorimetric),pH 1.2,105 kcal/mol
same,Tm,pH 1.91,56.9 °C
same,unfolding enthalpy (calorimetric),pH 1.91,138 kcal/mol
same,Tm,pH 2.2,62 °C
same,unfolding enthalpy (calorimetric),pH 2.2,144 kcal/mol
same,Tm,pH 2.35,67.9 °C
same,unfolding enthalpy (calorimetric),pH 2.35,161 kcal/mol
same,Tm,pH 2.56,75.2 °C
same,unfolding enthalpy (calorimetric),pH 2.56,174 kcal/mol
same,Tm,pH 3.18,81.1 °C
same,unfolding enthalpy (calorimetric),pH 3.18,193 kcal/mol
same,Tm,pH 3.45,83.7 °C
same,unfolding enthalpy (calorimetric),pH 3.45,199 kcal/mol
